Assay results reported in paper PMC5689134, “Detailed Analysis of Insulin Absorption Variability and the Tissue Response to Continuous Subcutaneous Insulin Infusion Catheter Implantation in Swine” (Diabetes Technology & Therapeutics, 2017).

System: subcutaneous tissue
Test: Tissue histology surrounding CSII catheters, pathologist grading
Type: in vivo, swine
Details: for Tissue histopathology compared with catheters infused with saline or not infused: day 5 of CSII infusion, result in words
Description: The swine were euthanized after completion of the third PK study on day 5. A 50 μL bolus of methylene blue dye was then infused into the CCs and ICs to determine whether dye migrated onto the skin surface. The skin and subcutaneous tissue surrounding the 72 catheters were excised and fixed in 10% formalin for 3 days. The tissue was grossed and processed using a long dehydration protocol for fatty tissue.[21] Specimens were sectioned perpendicular or parallel to the skin surface depending on the location and angle of the cannula in the excised tissue specimen. Four-micrometer-thick tissue sections were stained with hematoxylin and eosin (nuclei are stained blue/purple, extracellular matrix [ECM] and cytoplasm are stained in pink), Masson's trichrome (collagen/connective tissue is stained blue, muscle fibers and erythrocytes are stained bright red, and cytoplasm is stained pink), and a reticulin stain (type III collagen is stained silver).
A surgical pathologist analyzed the stained tissue for no, mild, moderate, or severe (grades 0, 1, 2, or 3, respectively) hemorrhage, reticular fiber disruption, fibrin deposition, fat necrosis, and collagen deposition compared with unaffected tissue. This grading system was newly established by the lead pathologist of this study who predefined these criteria before analyzing all samples. The pathologist remained blinded throughout the study. The size of the debris field was measured (mm) using the Aperio ScanScope image capture device and ImageScope software (Leica Biosystems). Topography of tissue planes was considered regular if subcutaneous tissue was pushed down evenly in the direction of the cannula tip and irregular or intermediate otherwise. Irregular or regular reservoir geometry described the shape of the debris field surrounding the catheter tip.
Fisher's exact test was used to evaluate the differences in histology profiles of CCs and ICs. A chi-squared test was applied to analyze differences in methylene blue dye leakage.

[1] = swine s.c. tissue, day 5, insulin-infused CSII catheters (CC + IC), count (percent in brackets)
[2] = swine s.c. tissue, day 5, insulin-infused CSII catheters (CC + IC), count (percent in brackets), P < 0.05 between infusion types
[3] = swine, day 5, insulin-infused CC, count (percent of 11 catheters)
[4] = swine, day 5, insulin-infused IC, count (percent of 12 catheters)

Substance: insulin lispro
- Collagen deposition at tip: catheters graded Mild [1]: 16 (66.7)
- Collagen deposition at tip: catheters graded Moderate [1]: 5 (20.8)
- Collagen deposition at tip: catheters graded None [1]: 2 (8.3)
- Collagen deposition at tip: catheters graded Severe [1]: 1 (4.2)
- Fat Necrosis: catheters graded Mild [1]: 5 (20.8)
- Fat Necrosis: catheters graded Moderate [1]: 12 (50.0)
- Fat Necrosis: catheters graded None [1]: 1 (4.2)
- Fat Necrosis: catheters graded Severe [1]: 6 (25.0)
- Hemorrhage at tip base: catheters graded Mild [1]: 13 (54.2)
- Hemorrhage at tip base: catheters graded Moderate [1]: 10 (41.7)
- Hemorrhage at tip base: catheters graded None [1]: 1 (4.2)
- Hemorrhage at tip base: catheters graded Severe [1]: 0
- Reticular Fiber Disruption: catheters graded Mild [1]: 9 (37.5)
- Reticular Fiber Disruption: catheters graded Moderate [1]: 6 (25.0)
- Reticular Fiber Disruption: catheters graded None [1]: 1 (4.2)
- Reticular Fiber Disruption: catheters graded Severe [1]: 8 (33.3)
- Fibrin Deposition in Reservoir: catheters graded Mild [2]: 2 (8.3)
- Fibrin Deposition in Reservoir: catheters graded None [2]: 1 (4.2)
- Fibrin deposition in reservoir: catheters graded Moderate [2]: 11 (45.8)
- Fibrin deposition in reservoir: catheters graded Severe [2]: 10 (41.7)
- Tissue histopathology compared with catheters infused with saline or not infused (swine s.c. tissue): increased fibrin
- Tissue histopathology compared with catheters infused with saline or not infused (swine s.c. tissue, listed as lispro insulin): greater amount of fibrin in the reservoir
- Collagen Deposition at Tip: catheters graded Mild [3]: 9 (82%)
- Collagen Deposition at Tip: catheters graded Moderate [3]: 2 (18%)
- Collagen Deposition at Tip: catheters graded None [3]: 0
- Collagen Deposition at Tip: catheters graded Severe [3]: 0
- Fat Necrosis: catheters graded Mild [3]: 4 (36%)
- Fat Necrosis: catheters graded Moderate [3]: 7 (64%)
- Fat Necrosis: catheters graded None [3]: 0
- Fat Necrosis: catheters graded Severe [3]: 0
- Fibrin Deposition in Reservoir: catheters graded Mild [3]: 0
- Fibrin Deposition in Reservoir: catheters graded None [3]: 0
- Fibrin deposition in reservoir: catheters graded Moderate [3]: 3 (27%)
- Hemorrhage at Tip Base: catheters graded Mild [3]: 7 (64%)
- Hemorrhage at Tip Base: catheters graded Moderate [3]: 4 (36%)
- Hemorrhage at Tip Base: catheters graded None [3]: 0
- Hemorrhage at Tip Base: catheters graded Severe [3]: 0
- Reticular Fiber Disruption: catheters graded Mild [3]: 9 (82%)
- Reticular Fiber Disruption: catheters graded Moderate [3]: 2 (18%)
- Reticular Fiber Disruption: catheters graded None [3]: 0
- Reticular Fiber Disruption: catheters graded Severe [3]: 0
- Collagen Deposition at Tip: catheters graded Mild [4]: 7 (58%)
- Collagen Deposition at Tip: catheters graded Moderate [4]: 3 (25%)
- Collagen Deposition at Tip: catheters graded None [4]: 1 (8%)
- Collagen Deposition at Tip: catheters graded Severe [4]: 1 (8%)
- Fat Necrosis: catheters graded Mild [4]: 1 (8%)
- Fat Necrosis: catheters graded Moderate [4]: 5 (42%)
- Fat Necrosis: catheters graded None [4]: 0
- Fat Necrosis: catheters graded Severe [4]: 6 (50%)
- Fibrin Deposition in Reservoir: catheters graded Mild [4]: 2 (17%)
- Fibrin Deposition in Reservoir: catheters graded None [4]: 0
- Fibrin deposition in reservoir: catheters graded Severe [4]: 2 (17%)
- Hemorrhage at Tip Base: catheters graded Mild [4]: 6 (50%)
- Hemorrhage at Tip Base: catheters graded Moderate [4]: 6 (50%)
- Hemorrhage at Tip Base: catheters graded None [4]: 0
- Hemorrhage at Tip Base: catheters graded Severe [4]: 0
- Reticular Fiber Disruption: catheters graded Mild [4]: 0
- Reticular Fiber Disruption: catheters graded Moderate [4]: 4 (33%)
- Reticular Fiber Disruption: catheters graded None [4]: 0
- Reticular Fiber Disruption: catheters graded Severe [4]: 8 (67%)
